The chains are these.
B1: Plakophilin-2 (Homo sapiens), Q99959-2 (parent)
chain: MAAPGAPAEYGYIRTVLGQQILGQLDSSSLALPSEAKLKLAGSSGRGGQTVKSLRIQEQVQQTLARKGRSSVGNGNLHRTSSVPEYVYNLHLVENDFVGGRSPVPKTYDMLKAGTTATYEGRWGRGTAQYSSQKSVEERSLRHPLRRLEISPDSSPERAHYTHSDYQYSQRSQAGHTLHHQESRRAALLVPPRYARSEIVGVSRAGTTSRQRHFDTYHRQYQHGSVSDTVFDSIPANPALLTYPRPGTSRSMGNLLEKENYLTAGLTVGQVRPLVPLQPVTQNRASRSSWHQSSFHSTRTLREAGPSVAVDSSGRRAHLTVGQAAAGGSGNLLTERSTFTDSQLGNADMEMTLERAVSMLEADHMLPSRISAAATFIQHECFQKSEARKRVNQLRGILKLLQLLKVQNEDVQRAVCGALRNLVFEDNDNKLEVAELNGVPRLLQVLKQTRDLETKKQITGLLWNLSSNDKLKNLMITEALLTLTENIIIPFSGWPEGDYPKANGLLDFDIFYNVTGCLRNMSSAGADGRKAMRRCDGLIDSLVHYVRGTIADYQPDDKATENCVCILHNLSYQLEAELPEKYSQNIYIQNRNIQTDNNKSIGCFGSRSRKVKEQYQDVPMPEEKSNPKGVEWLWHSIVIRMYLSLIAKSVRNYTQEASLGALQNLTAGSGPMPTSVAQTVVQKESGLQHTRKMLHVGDPSVKKTAISLLRNLSRNLSLQNEIAKETLPDLVSIIPDTVPSTDLLIETTASACYTLNNIIQNSYQNARDLLNTGGIQKIMAISAGDAYASNKASKAASVLLYSLWAHTELHHAYKKAQFKKTDFVNSRTAKAYHSLKD
B2: Galactose-1-phosphate uridylyltransferase (Homo sapiens), P07902 (parent)
chain: MSRSGTDPQQRQQASEADAAAATFRANDHQHIRYNPLQDEWVLVSAHRMKRPWQGQVEPQLLKTVPRHDPLNPLCPGAIRANGEVNPQYDSTFLFDNDFPALQPDAPSPGPSDHPLFQAKSARGVCKVMCFHPWSDVTLPLMSVPEIRAVVDAWASVTEELGAQYPWVQIFENKGAMMGCSNPHPHCQVWASSFLPDIAQREERSQQAYKSQHGEPLLMEYSRQELLRKERLVLTSEHWLVLVPFWATWPYQTLLLPRRHVRRLPELTPAERDDLASIMKKLLTKYDNLFETSFPYSMGWHGAPTGSEAGANWNHWQLHAHYYPPLLRSATVRKFMVGYEMLAQAQRDLTPEQAAERLRALPEVHYHLGQKDRETATIA

One test covers variants of B1. Conditions: with MTUS2, Q5JR59-3.
MTUS2, Q5JR59-3, sequence (Q5JR59 other isoform, or with tags, fused parts or gaps): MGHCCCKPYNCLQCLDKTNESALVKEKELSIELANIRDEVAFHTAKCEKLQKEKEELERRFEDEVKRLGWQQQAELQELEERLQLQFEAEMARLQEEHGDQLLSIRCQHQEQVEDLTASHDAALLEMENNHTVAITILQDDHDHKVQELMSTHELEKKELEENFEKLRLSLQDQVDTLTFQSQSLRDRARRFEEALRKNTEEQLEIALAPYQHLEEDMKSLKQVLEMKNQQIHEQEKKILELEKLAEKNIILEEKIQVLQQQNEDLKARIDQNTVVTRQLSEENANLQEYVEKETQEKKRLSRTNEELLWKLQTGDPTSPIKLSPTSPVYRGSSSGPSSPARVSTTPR
Regarding A264V, the “effect of a mutation on the interaction” value is “with no effect”.

For S644P, the “effect of a mutation on the interaction” value is “disrupting interaction strength”. With S140F, the “effect of a mutation on the interaction” value was “disrupting interaction strength”.

The next test covers variants of B2. Conditions: with TNK2, Q07912-2.
TNK2, Q07912-2, sequence (Q07912 other isoform, or with tags, fused parts or gaps): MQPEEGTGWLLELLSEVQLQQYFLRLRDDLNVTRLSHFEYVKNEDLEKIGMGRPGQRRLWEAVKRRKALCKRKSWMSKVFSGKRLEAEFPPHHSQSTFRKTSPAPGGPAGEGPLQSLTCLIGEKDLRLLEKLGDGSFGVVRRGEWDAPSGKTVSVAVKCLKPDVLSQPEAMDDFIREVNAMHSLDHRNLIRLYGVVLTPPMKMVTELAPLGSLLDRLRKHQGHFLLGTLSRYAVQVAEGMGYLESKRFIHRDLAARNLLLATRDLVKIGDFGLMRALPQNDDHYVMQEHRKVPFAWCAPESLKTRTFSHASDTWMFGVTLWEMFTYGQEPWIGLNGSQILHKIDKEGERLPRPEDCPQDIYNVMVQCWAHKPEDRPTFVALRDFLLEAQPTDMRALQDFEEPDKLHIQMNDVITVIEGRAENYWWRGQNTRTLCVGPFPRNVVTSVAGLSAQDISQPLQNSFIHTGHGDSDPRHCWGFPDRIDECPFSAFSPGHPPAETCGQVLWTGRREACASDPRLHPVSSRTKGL
For Y34N, the “effect of a mutation on the interaction” value was “with no effect”. In the case of H319Q, the “effect of a mutation on the interaction” value was “with no effect”.

In the case of R272H, the “effect of a mutation on the interaction” value is on record as “with no effect”. As to G175D, the “effect of a mutation on the interaction” value is “with no effect”.

(Values after IntAct's records for PubMed 25910212.)
